Test results reported in publication PMC8986801, “Activation of the essential kinase PDK1 by phosphoinositide-driven trans-autophosphorylation” (Nature Communications, 2022).

Biological target: the molecule itself
Assay: SEC-MALS; 50 μl of purified protein injected on Superdex 200 10/300; 50 mM Tris pH 7.5, 100 mM NaCl, 2% glycerol, 1 mM TCEP, 2 mM MgCl2, ±1 mM ATP; self-association (monomer or dimer)

B1: PDK1^SKD-PIF S241A (PIFtide fused through a (GS)4 linker to the C-terminus of the short kinase domain, S241A) (other)
chain: QPRKKRPEDFKFGKILGEGSFSTVVLARELATSREYAIKILEKRHIIKENKVPYVTRERDVMSRLDHPFFVKLYFTFQDDEKLYFGLSYAKNGELLKYIRKIGSFDETCTRFYTAEIVSALEYLHGKGIIHRDLKPENILLNEDMHIQITDFGTAKVLSPESKQARANAFVGTAQYVSPELLTEKSACKSSDLWALGCIIYQLVAGLPPFRAGNEYLIFQKIIKLEYDFPEKFFPKARDLVEKLLVLDATKRLGCEEMEGYGPLKAHPFFESVTWENLHQQTPPKLTGSGSGSGSQEMFRDFDYIADWC
notes: 3-phosphoinositide-dependent kinase 1 (PDK1), human, residues 73-359 (short kinase domain); minimal poly Gly-Ser (GS)4 linker; PIFtide, a peptide derived from the hydrophobic motif of PRK2; also called C-terminal PIFtide SKD fusion S241A; dimer; source: baculovirus-infected Sf9 insect cells, purified (glutathione sepharose, 3C cleavage, HiTrap Q, gel filtration); not shown: GST, N-terminal, …
For B1, the “stoichiometry N” value was 2.
